Earlier results, collected in PMC9585055.
pKd: −log10 of the molar value.

Target: cellular prion protein PrPC (Homo sapiens) (UniProt P04156)

With “tissue-type plasminogen activator (from UniProt P00750)” as the substance, how does the pKd read?
Its pKd is 8.60.
